The record followed here is PMC3176765, “Mechanism of the Interaction between the Intrinsically Disordered C-Terminus of the Pro-Apoptotic ARTS Protein and the Bir3 Domain of XIAP” (PLoS ONE, 2011).

Series [1] concerns the target T1, Bir3 subunit of the XIAP (residues 252–350) (Homo sapiens, UniProt P98170).
T1 construct: The pET-21b(+) vector containing XIAP (252–350) Bir3 domain with a C-terminal His Tag; His tag (C); made in house; host or cells: E. coli BL21 Star (DE3)
Description: Fluorescence spectroscopy binding of dimeric fl-ARTS 266–274 to Bir3 (Hill equation fit). The note with it: fluorescence titration with Bir3; 20 mM Hepes pH 7.4, 45 mM NaCl, 10°C; Hill model, apparent averaged Kd; read-out: K d of dimeric peptide, fit to the Hill equation. How it is done:
The importance of Cys273 residue for Bir3 binding raised the question of whether disulfide bond formation is involved in the interaction with Bir3. Addition of a reducing agent weakened the interaction between the ARTS derived peptides and Bir3 (Figure 4A). This raised the possibility that a disulfide bond is formed between two ARTS peptide molecules to form an active dimer. To test this, a covalent dimer of ARTS 266–274 was prepared by forming a disulfide bond between the Cys273 residues of two peptide monomers. MS gave a single peak corresponding the mass of the dimer (data not shown). […] Changes in the chemical shift of the sequentially following His274 and preceding Gln272 were also observed. Binding of Bir3 to the dimeric fl-ARTS 266–274 was studied using fluorescence spectroscopy (Fig. 6C). […]
Measurements were performed at 10°C by using a PerkinElmer LS-50b luminescence spectrofluorimeter equipped with a Hamilton microlabM dispenser as described in [44]. The fluorescently labeled peptide concentrations were determined by using a UV spectrophotometer (Shimadzu, Kyoto, Japan). […] Additions of 5 µl were titrated at 90 sec intervals, the solution was stirred for 15 sec, and the fluorescence and anisotropy were measured after each addition by using an excitation wavelength of 480 nm and an emission wavelength of 530 nm. […]

Series [2] has as its target Dimer fl-ARTS 266-274 (human). Description: other fluorescence titration; Bir3 titrated into dimeric fl-ARTS 266-274; fluorescence fit to the Hill equation; apparent averaged Kd; 20 mM Hepes pH 7.4, 45 mM NaCl, 10°C.
The target of series [3] is T1, Bir3 subunit of the XIAP (residues 252–350). Description: Fluorescence anisotropy binding of fluorescein-labeled ARTS peptides to Bir3 (1:1 binding model). The note with it: Bir3 titrated into fluorescein-labeled peptide, 20 mM Hepes pH 7.4, 45 mM NaCl, 10°C, no reducing agent, fit to 1:1 binding model, nb = no binding detected. How it is done: Fluorescence anisotropy was used to characterize the interaction between ARTS CTD and the Bir3 subunit of XIAP. ARTS CTD (residues 248–274) was synthesized using standard Fmoc chemistry and labeled with fluorescein at its N-terminus. The Bir3 subunit of the XIAP (residues 252–350) was expressed with a His-tag at the C-terminus and purified (see materials and methods and Figure S1). The binding experiments were done in 20 mM Hepes buffer, pH 7.4, 45 mM NaCl, at 10°C. Bir3 was titrated into fl-ARTS CTD and the data were fit to 1∶1 binding model resulting in K d = 8.0±0.7 µM (Figure 4A).
The pET-21b(+) vector containing XIAP (252–350) Bir3 domain with a C-terminal His Tag was transformed into E. coli strain BL21 Star^+ (DE3) (Novagen). Cells were grown at 37°C in LB medium to an optical density (600 nm) of ∼0.6 and induced with 0.4 mM isopropyl-β-D-1-thiogalactoside (IPTG). Cells were harvested after 8 h of incubation at 37°C and were lysed by Microfluidizer (Microfluidics). The protein was purified on HiTrap nickel-Sepharose FF column (100×10 mm, GE Healthcare), using an FPLC system (ÁKTA explorer, Amersham Biosciences). The eluted protein was further purified by filtration on a Sephacryl S100 column (950×26 mm; Amersham Biosciences). The protein was stored in 20 mM Hepes pH 7.4, 50 mM NaCl, 10 mM βME, 0.02% sodium azide and was dialyzed before experimental use.
Measurements were performed at 10°C by using a PerkinElmer LS-50b luminescence spectrofluorimeter equipped with a Hamilton microlabM dispenser as described in [44]. The fluorescently labeled peptide concentrations were determined by using a UV spectrophotometer (Shimadzu, Kyoto, Japan). The fluorescein-labeled ARTS derived peptides were dissolved in 20 mM Hepes buffer, pH 7.4 and 45 mM NaCl. 1 ml of the labeled peptide solution was placed in a cuvette, and the non-labeled Bir3 (200 µl, 150 µM) was placed in the dispenser. Additions of 5 µl were titrated at 90 sec intervals, the solution was stirred for 15 sec, and the fluorescence and anisotropy were measured after each addition by using an excitation wavelength of 480 nm and an emission wavelength of 530 nm. Dissociation constants (K d) were calculated by fitting the fluorescence titration curves (corrected for dilution) or fluorescence anisotropy curves to 1∶1 binding model using KALEIDAGRAPH (Synergy Software, Reading, PA). The following equation was used for the single-site model of the fluorescence results: [drawing 1] Where, F0 is the initial fluorescence, ΔF is the amplitude of the fluorescence change from unbound and bound states, K d is the dissociation constant and [Bir3] is the added concentration of Bir3 domain. A similar equation was used to fit the anisotropy results by replacing the fluorescence (F) with anisotropy (R) changes.

Series [4] deals with T2, Bir3 domain of XIAP (residues 252-350) with a C-terminal His tag (UniProt P98170 252-350).
T2 construct: Stored with 10 mM beta-mercaptoethanol and dialysed before experimental use; also called Bir3 subunit of XIAP; XIAP (252-350); source: E. coli BL21 Star (DE3), purified (nickel-Sepharose, Sephacryl S100 gel filtration)
Description: fluorescence polarisation; non-labeled Bir3 (200 µl, 150 µM) titrated in 5 µl additions into 1 ml of fluorescein-labeled peptide; 20 mM Hepes pH 7.4, 45 mM NaCl, 10°C; fit to 1:1 binding model. The note with it: both partners purified.

Series [5] addresses T2, Bir3 domain of XIAP (residues 252-350) …. Nature of the series: NMR titration; TOCSY spectra of free and Bir3-bound ARTS CTD compared; peptide 0.5-1.5 mM, 20 mM deuterated Hepes, 45 mM potassium chloride, pH 6.8, 12°C. The note with it: both partners purified.
Series [6] concerns the molecule itself. Nature of the series: SEC; analytical gel filtration of ARTS CTD 248-274 (1-2 mM) without DTT; 20 mM Hepes pH 7.4, 50 mM NaCl, 4°C; peaks identified by mass spectrometry; monomer to dimer.
In series [7] the target is T2, Bir3 domain of XIAP (residues 252-350) …. Nature of the series: fluorescence polarisation; non-labeled Bir3 (200 µl, 150 µM) titrated in 5 µl additions into 1 ml of fluorescein-labeled peptide; 20 mM Hepes pH 7.4, 45 mM NaCl, 10°C; fit to 1:1 binding model. Particulars: both partners purified. This is another data set of the same source.

Positions of bridges follow the written chain, without caps; N, C: chain ends. Residues, ends and D or L forms follow the SMILES beside them. Chains are numbered I, II in the order given. No end group written: not given here. *: point of attachment. 5FAM = O=C1OC2(c3ccc(O)cc3Oc3cc(O)ccc32)c2ccc(C(=O)*)cc21

T2 sequence (P98170 252-350): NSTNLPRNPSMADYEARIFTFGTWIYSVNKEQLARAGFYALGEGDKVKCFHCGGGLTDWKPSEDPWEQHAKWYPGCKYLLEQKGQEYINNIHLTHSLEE
T1 sequence (P98170 252-350): as above

With `NC(=O)CC[C@H](NC(=O)CNC(=O)[C@H](CCC(N)=O)NC(=O)[C@H](Cc1c[nH]cn1)NC(=O)[C@H](CCC(=O)O)NC(=O)[C@H](CCC(N)=O)NC(=O)c1ccc2c(c1)C(=O)OC21c2ccc(O)cc2Oc2cc(O)ccc21)C(=O)NCC(=O)N[C@@H](CSSC[C@H](NC(=O)CNC(=O)[C@H](CCC(N)=O)NC(=O)CNC(=O)[C@H](CCC(N)=O)NC(=O)[C@H](Cc1c[nH]cn1)NC(=O)[C@H](CCC(=O)O)NC(=O)[C@H](CCC(N)=O)NC(=O)c1ccc2c(c1)C(=O)OC21c2ccc(O)cc2Oc2cc(O)ccc21)C(=O)N[C@@H](Cc1c[nH]cn1)C(=O)O)C(=O)N[C@@H](Cc1c[nH]cn1)C(=O)O` [Dimer fl-ARTS 266–274] (I: 5FAM-QEHQGQGCH-OH / II: 5FAM-QEHQGQGCH-OH; disulfide I:8-II:8), the Kd in series [1] is 2400 ± 100 nM.

For the molecule “Bir3 domain of XIAP (residues 252-350) with a C-terminal His tag (from UniProt P98170 252-350) (domain or fragment)”, the Kd in series [2] was 2400 nM.

For “PPGAVKGTG [fl-ARTS 257–265, fluorescein-labeled peptide of ARTS residues 257–265]”, the entries for the “K d (µM), binding affinity to Bir3” value in series [3] and in series [3] (listed as ARTS 257–265) were “nb” and “did not”, respectively.

With “QEAQGQGCH [fl-ARTS 266–274 H268A, alanine-scan analogue of fl-ARTS 266–274]”, the “K d (µM), binding affinity to Bir3” value in series [3] is reported as “nb”; in series [3] (listed as ARTS 266–274 H268A) it was “did not bind”.

As to “QEHQGQGAH [fl-ARTS 266–274 C273A, alanine-scan analogue of fl-ARTS 266–274]”, the “K d (µM), binding affinity to Bir3” value is recorded as “nb” in series [3] and “did not bind” in series [3] (listed as Cys273A).

As for “YGPSLRLLA [fl-ARTS 248–256, fluorescein-labeled peptide of ARTS residues 248–256]”, the “K d (µM), binding affinity to Bir3” value in series [3] is listed as “nb”; in series [3] (listed as ARTS 248–256), “did not”.

B1: fl-ARTS 266-274 Q266A (peptide)
peptide: {5'/6'‑carboxyfluorescein}-AEHQGQGCH
notes: numbers count on: ARTS/Sept4_i2 (GenBank AAG45673.1); source: synthetic peptide
The molecule B1 yielded a Kd in series [4] of 900 ± 100 nM.

B2: fl-ARTS 266-274 E267A (peptide)
peptide: {5'/6'‑carboxyfluorescein}-QAHQGQGCH
notes: as for B1
With B2, the Kd in series [4] stood at 3600 ± 800 nM.

B3: fl-ARTS 266-274 Q271A (peptide)
peptide: {5'/6'‑carboxyfluorescein}-QEHQGAGCH
notes: as for B1
B3 had a Kd in series [4] of 1300 ± 200 nM.

B4: fl-ARTS 266-274 H274A (peptide)
peptide: {5'/6'‑carboxyfluorescein}-QEHQGQGCA
notes: as for B1
Consider B4, for which the Kd in series [4] is 800 ± 300 nM.

B5: fl-ARTS 248-274 (peptide)
peptide: {5(6)‑carboxyfluorescein}-YGPSLRLLAPPGAVKGTGQEHQGQGCH
notes: numbers count on: ARTS/Sept4_i2 (GenBank AAG45673.1); also called fl-ARTS CTD; fluorescein-labeled ARTS CTD 248-274; source: synthetic peptide
In turn, B5 returned a Kd in series [4] of 8000 ± 700 nM.

B6: ARTS CTD 248-274 (not labelled) (peptide)
peptide: YGPSLRLLAPPGAVKGTGQEHQGQGCH
notes: numbers count on: ARTS/Sept4_i2 (GenBank AAG45673.1); also called ARTS C-terminal domain; source: synthetic peptide
Consider B6, for which the binding result in series [5] is recorded as “binds”. Further, in series [6], the “stoichiometry N” value worked out at 2.

B7: fl-ARTS 266-274 Q269A (peptide)
peptide: {5'/6'‑carboxyfluorescein}-QEHAGQGCH
notes: as for B1
For the molecule B7, the Kd in series [4] was found to be 1000 ± 300 nM.

B8: fl-ARTS 266-274 (peptide)
peptide: {5'/6'‑carboxyfluorescein}-QEHQGQGCH
notes: numbers count on: ARTS/Sept4_i2 (GenBank AAG45673.1); also called ARTS 266-274 monomer; source: synthetic peptide
For the molecule B8, the Kd in series [7] stood at 2900 ± 300 nM; in series [4], 2500 ± 300 nM.
